Assay results: the nanobody polyreactivity screen of Harvey et al. (2022)

Assay: yeast display, Sf9 membrane polyspecificity reagent, FACS + sequencing; frameworks hold sequencing errors
Outline: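 Nanobodies came from a synthetic yeast display library in Saccharomyces cerevisiae BJ5465, induced with galactose for 36–48 hours and stained for 1 hour at 4 °C with 10% biotinylated, detergent-solubilized Sf9 membrane reagent. Cells were enriched on streptavidin microbeads and then FACS-sorted, with low and high (top ~1%) gates set on anti-HA fluorescence for expression and streptavidin fluorescence for reagent binding. Each polyreactivity label reflects the gate a clone came from. Genes were amplified by colony PCR, sequenced by MiSeq 2 × 250 and filtered by CDR length.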

Row | Sequence | polyreactivity (PSR sort gate)
1 | QVQLVESGGGLVQAGGSLRLSCAASGFTFIRSAMGWYRQAPGKGRELVAAITVSGTRTYYADSVKGRFTISRDNAKNTVYLQMNSLKPEDTAVYYCNARDVYTGYGMGYWGQGTQVTVSS | high polyreactivity
2 | QVQLVESGGGLVQAGGSLRLSCAASGFTFIRYAMGWYRQAPGKERELVATITRRGGSTYYADSVTGRFTISRDNAKNTVYFQMNSLKPEDTAVYDCNRDYVTYGQYYYWGQGTQVTVSS | high polyreactivity
3 | QVQLVESGGGLVQAGGSLRLSCAASGFTFIRYARGWYRPAPGKERELVAAIRGTGTSTYYADSVKGRFTISRDNAKNTVYLQMNSLKPEDTAVDYCNTVAGRSPYTRYDYWGQGTQVTVSS | low polyreactivity
4 | QVQLVESGGGLVQAGGSLRLSCAASGFTFISYAMGWYRQAPGKERELVAVINQRGGRTYYADSVKGRFTISRDNAKNTVYLQMNSLKPEDTAVYYCATRLKSVSGGYNYWGQGTQVTVSS | high polyreactivity
5 | QVQLVESGGGLVQAGGSLRLSCAASGFTFITNAMGWYRQAPGKERELVASISIGGSTNYADSVKGRFTISRDNAKNTVYLQMNSLKPEDTAVYYCAARVYRRLFLPGRYGRPLGYWGQGTQVTVSS | high polyreactivity
6 | QVQLVESGGGLVQAGGSLRLSCAASGFTFIYNAMGWYRQAPGKERELVAAISRGASTNYADSVKGRFTISRDNAKNTVYLQMNSLKPEDTAVYYCAKRTTRLAPYDYWGQGTQVTVSS | high polyreactivity
7 | QVQLVESGGGLVQAGGSLRLSCAASGFTFIYYAMGWYRQAPGKERELVAAISSRTGRTYYADSVKGRFTISRDNAKNTVYLQMNSLKPEDTAVYYCNADRNWRSGKFNYWGQGTQVTVSS | high polyreactivity
8 | QVQLVESGGGLVQAGGSLRLSCAASGFTFIYYAMGWYRQARGKERELVAAISRGDSTYYADSVKGRFTISRDNAKNTVYLQMISLKPEDTAVYYCAAASHVRRDHGYWGEGTQVTVSS | low polyreactivity
9 | QVQLVESGGGLVQAGGSLRLSCAASGFTFKFNAMGWYRQAPGKEREFVAAISYSGGSTYYADSVKGRFTISRDNAKNTVYLQMNSVKPEDTAVYYCAARAYWYGASYYYWGQGTQVTVSS | high polyreactivity
10 | QVQLVESGGGLVQAGGSLRLSCAASGFTFKFYAMGWYRPAPGKERELVAAISSGGASTYYADSVKGRFTISRDNAKNTVYLQMNSLKPEDTAVYYFAARSGGPSDGSGYWGQGTEVTVSS | low polyreactivity
11 | QVQLVESGGGLVQAGGSLRLSCAASGFTFKFYAMGWYRQAPGKERELVAAISWSGGSTYYADSVKGRFTISRDNAKNTVYLQMNSLKPEDTAVYYFAKRGGRQTYYYWGLGTQVTVSS | high polyreactivity
12 | QVQLVESGGGLVQAGGSLRLSCAASGFTFKGNAMGWYRQAPGKERELVATITQSAGSTYYADSVKGRFTISRDNAKNTVYLQMNSLKPEDTAVYYCNADPITLYYYSWYNYWGQGTQVTVSS | low polyreactivity
13 | QVQLVESGGGLVQAGGSLRLSCAASGFTFKGNTMGWYRQAPGKERELVANITRGGTTYYADSVKGRFTISRDNAKNTVYLQMNSLKPEDTAVYYCAARNWPSRGYNYWGQGTQVTVSS | high polyreactivity
14 | QVQLVESGGGLVQAGGSLRLSCAASGFTFKLYAMGWYRQAPGKERELVAVITTSGGRTYYADSVKGRFTISRDNANNTVYLQMTSLKPEDTAVYYCAKVVFVRVAPGYYWGQGTQVTVSS | high polyreactivity
15 | QVQLVESGGGLVQAGGSLRLSCAASGFTFKSNAMGGYRQAPGKEREKVAAIDSRGDRTYYADSVKGRFTISRDNAKNTVYLQMNSLKPEDTAVYYCATKWRTYWSSGEYWGQGTQVTVSS | high polyreactivity
16 | QVQLVESGGGLVQAGGSLRLSCAASGFTFKSYAMGWYRQAPGKERELVAAINRSGGSTYYADSVKGRFTISRDNAKNTVYLQMNSLKPEDTAVYYCAAVKPPDYYYWGQGTQVTVSS | high polyreactivity
17 | QVQLVESGGGLVQAGGSLRLSCAASGFTFKTNARGWYRQAPVTERELVAAITGSGSSTYYADSVKGRFTISRDNAKNTVYLQMNSLKPEDTAVYYCAASRVYKYYWGQGTEVTVSS | high polyreactivity
18 | QVQLVESGGGLVQAGGSLRLSCAASGFTFKTYAMGSYRPAPGKEREFVAAISSRGGSTYYSDSVKGRFTISRDNAKNTVYLQMHSLKPEDTAVYYCATATRPRDRYSRYGYWGQGTQVTVSS | high polyreactivity
19 | QVQLVESGGGLVQAGGSLRLSCAASGFTFKTYAMGWYRQAPGKEREFVAAISSRGGSTYYADSVKGRFTISRDNAKNTVYLQMNSLKPEDTAVYYCATATRPRDRYSRYGYWGQGTQVTVSS | high polyreactivity
20 | QVQLVESGGGLVQAGGSLRLSCAASGFTFKTYVMGWYRQAPGKERELVAAISRRGGSTHYADSVKGRFTISRDNAKNTVYLQMNSLKPEVTAVYYCAARHPFAGTVWGVVSYDYWGQGTLVTVSS | high polyreactivity
21 | QVQLVESGGGLVQAGGSLRLSCAASGFTFKWYTRGWYRQAPGKERELVAAISTRGGSTYYADSVKGRFTISRDNAKNTVYLQMNSLKPEDTAVYYCAAVYRRGSGYDYWGQGTQVTVSS | high polyreactivity
22 | QVQLVESGGGLVQAGGSLRLSCAASGFTFKYKAMGWYRQAPGKERELVAVISSSGGRTYYADSVKGRFTISRDNAKNTVYLQMNSLKPEDTAVYYCAADTFVWADWSWHYYWRQGTQVTVSS | high polyreactivity

Row | Sequence | polyreactivity (PSR sort gate)
23 | QVQLVESGGGLVQAGGSLRLSCAASGFTFKYYAMGWYRQAPGKERELVAAIRRSAGSTNYADSVKGRFTISRDNAKNTVYLQMNSLKPEDTAVYYCNTVGTRQPMDYWGQGTQVTVSS | high polyreactivity
24 | QVQLVESGGGLVQAGGSLRLSCAASGFTFKYYAMGWYRQAPGKERELVAAISSGVSTNYADSVKGRFTISRDNAKNTVYLQMNSLKPEDTAVYYCNAEVFWWDQWYDYWGQGTQVTVSS | high polyreactivity
25 | QVQLVESGGGLVQAGGSLRLSCAASGFTFKYYAMGWYRQAPGKERELVASISYSGGRTSYADSVKGRFTISRDNAKNTVYLQMNSLKPEDTAVYYCNADVRRIDYKSRQYDYWGQGTQVTVSS | high polyreactivity
26 | QVQLVESGGGLVQAGGSLRLSCAASGFTFKYYAMGWYRQAPGKERELVAVINQSGGSTSYADSVKGRFTISRDNAKNTVYLQMNSLKPEDTAVYYCAALVGLFWLWNYDYWGQGTQVTVSS | high polyreactivity
27 | QVQLVESGGGLVQAGGSLRLSCAASGFTFKYYAMGWYRQAPGKERELVAVISSSGGSTYYADSVKGRFTISRDNAKNTVYLQMNSLKPEDTAVYYCNTDAYWHRQQYDYWGQGTQVTVSS | low polyreactivity
28 | QVQLVESGGGLVQAGGSLRLSCAASGFTFKYYVKGWYRQAPGKERELVAAISSNGGTTYYADSVKGRFTISRDNAKNTVYVQMNSLKPEDTAVYYCAAEPGQEYVVGYSYWGQGSQVTVSS | high polyreactivity
29 | QVQLVESGGGLVQAGGSLRLSCAASGFTFLKYAMGGYRQAPGKERDLVARITSGGRTYYADSVKGRFTISRDNAKNTVYLQMNSLKPEDTAVYYCNAVKSYASLYAVFYDWGQGTQVTVSS | high polyreactivity
30 | QVQLVESGGGLVQAGGSLRLSCAASGFTFLKYAMGWYRQAPGKERELVAAISWSGGRTFYADSVKGRFTISRDNAKNTVYLQMISLKPEDTAVYYCATRTRGSVYRFDYWGQGTQVTVSS | high polyreactivity
31 | QVQLVESGGGLVQAGGSLRLSCAASGFTFLRYAMGWYRQAPGKERELVAAITGSGGSTYYADSVKGRFTISRDNAKNTVYLQMNSLKPEDTAVYYCSIVSKFTGDYGYWGQGTQVTVSS | high polyreactivity
32 | QVQLVESGGGLVQAGGSLRLSCAASGFTFLSNDMGWYRQSPGKERELVAGINFSGDGTYYADSVKGRFTISRDNAKNPVYLQMNSLKPEDSAVYYCAAGWLPKYGYWGKGTQVTVSS | low polyreactivity
33 | QVQLVESGGGLVQAGGSLRLSCAASGFTFLTNAMGWYRQAPGKERELVAAISSGGNTNYADSVKGRFTISRDNAKNTVYLQMNSLKPEDTAVYYCAADNDYLSSQVSYDYWGQGTQVTVSS | low polyreactivity
34 | QVQLVESGGGLVQAGGSLRLSCAASGFTFLVNAMGWYRQAPGKERELVAAISSGGSTYYADSVKGRFTISRDNAKNTVYLQMNSLKPEDTAVYYCAAPTDFLFWEFDYWGQCTQVTVSS | low polyreactivity
35 | QVQLVESGGGLVQAGGSLRLSCAASGFTFLVYAMGWYRQAPGKERELVAAISRRGCSTYYADSVKGRFTISRDNAKNTVYLQMNSLKPEDTSVYYCNKYRQQGWEFDYWGQGTQVTVSS | high polyreactivity
36 | QVQLVESGGGLVQAGGSLRLSCAASGFTFLYGMGWYRQAPGEERELVAAISNTGGSTYYADSVKGRFTISRDNAKNTVYLQMNSLKPEDTAVYYCAADGGQWWVFYALDFWGQGTQVTVSS | low polyreactivity
37 | QVQLVESGGGLVQAGGSLRLSCAASGFTFLYYAMGWYRPAPGKERELVAAISASSDRTYYADSVKGRFTISRDNAKNTVYLQMNSLKPEDTAVYYCAAYNSRVGGYRGYGYWGQGTQVTVSS | high polyreactivity
38 | QVQLVESGGGLVQAGGSLRLSCAASGFTFLYYDMGWYRQAPGKERELVAAITNDDSTYYADSVKGRFTISRDNAKNTVYLQMNSLKPEDTAVYYCNADVWYYTPYDYWGQVTQVTVSS | high polyreactivity
39 | QVQLVESGGGLVQAGGSLRLSCAASGFTFNDNAMGWYRQAPGKERELVAAITYGGSTYYADSVKGRFTISRDNAKNTVYLQMNSLKPEDTAVYYCARDLSAGPGRDYWGQGTQVTVSS | low polyreactivity
40 | QVQLVESGGGLVQAGGSLRLSCAASGFTFNKYAMGCYRQAPGKERELVAAISGSGGRTYYADSVKGRFTISRDNAKNTVYLQMNSLKPEDTAVYYCAAQRSVKVDYWGQGTQVTVSS | high polyreactivity
41 | QVQLVESGGGLVQAGGSLRLSCAASGFTFNNNAMGWYRQAPGKERELVAAISSSGGNTYYADSVKGRFTISRDNAKNTVYLQMNSLKPEDTAVYYCNAGKRQRGEYWGQGTQVTVSS | high polyreactivity
42 | QVQLVESGGGLVQAGGSLRLSCAASGFTFNRYAMGWYRQAPGKERELVAAITSGGRTYYADSVKGRFTISRDNAKNTVYLQMNSLKPEDTAVYYCATLYVRNVSGYDYWGQGTQVTVSS | high polyreactivity
43 | QVQLVESGGGLVQAGGSLRLSCAASGFTFNSYAMGWYRQAPGKEREFVAAISRSGSNTNYADSVKGRFTISRDNAKNTVYLEMNSLKPEDTAVYYCAARVSSVTRSGFGYWGEGTQVTVSS | high polyreactivity
